Assay results as given in patent US20110081659.

Target: T1, ULight-labeled 4E-BP1 fragment peptide GSK3 substrate (non-primed)
T1 chain: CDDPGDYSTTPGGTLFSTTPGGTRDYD

B1: GSK3α (Carna) (protein)
chain: MSGGGPSGGGPGGSGRARTSSFAEPGGGGGGGGGGPGGSASGPGGTGGGKASVGAMGGGVGASSSGGGPGGSGGGGSGGPGAGTSFPPPGVKLGRDSGKVTTVVATLGQGPERSQEVAYTDIKVIGNGSFGVVYQARLAETRELVAIKKVLQDKRFKNRELQIMRKLDHCNIVRLRYFFYSSGEKKDELYLNLVLEYVPETVYRVARHFTKAKLTIPILYVKVYMYQLFRSLAYIHSQGVCHRDIKPQNLLVDPDTAVLKLCDFGSAKQLVRGEPNVSYICSRYYRAPELIFGATDYTSSIDVWSAGCVLAELLLGQPIFPGDSGVDQLVEIIKVLGTPTREQIREMNPNYTEFKFPQIKAHPWTKVFKSRTPPEAIALCSSLLEYTPSSRLSPLEACAHSFFDELRCLGTQLPNNRPLPPLFNFSAGELSIQPSLNAILIPPHLRSPAGTTTLTPSSQALTETPTSSDWQSTDATPTLTNSS
With B1 the S/B, LANCE Ultra kinase assay, 20 nM enzyme, n = 1 was 35.7 and the S/B, LANCE Ultra kinase assay, 20 nM enzyme, n = 2 was 33.2.
